This data set has as its target C/EBPα WT (ivt) (human, UniProt P49715 1-358). Kind of data set: EMSA; supershift by C/EBPα antibody; 10 mM HEPES-KOH pH 7.9, 50 mM KCl, 2.5 mM MgCl2, 1 mM DTT, 10% glycerol, 1 ug BSA, 0.5 ug poly(dI-dC), 25 ul, on ice 20 min; 6% gel, 0.5x TBE, 4 °C.

C/EBPα WT (ivt), sequence (P49715 whole entry): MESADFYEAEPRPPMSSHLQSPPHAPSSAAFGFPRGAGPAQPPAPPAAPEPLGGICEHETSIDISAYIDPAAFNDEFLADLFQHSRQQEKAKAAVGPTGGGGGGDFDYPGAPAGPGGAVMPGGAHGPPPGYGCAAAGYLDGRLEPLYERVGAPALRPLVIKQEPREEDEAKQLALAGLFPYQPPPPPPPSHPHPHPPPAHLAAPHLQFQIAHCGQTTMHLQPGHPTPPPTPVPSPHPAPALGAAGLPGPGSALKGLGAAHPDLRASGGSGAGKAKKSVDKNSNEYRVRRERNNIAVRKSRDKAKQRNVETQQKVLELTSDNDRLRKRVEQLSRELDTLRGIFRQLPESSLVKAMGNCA

B1: G-CSF receptor promoter C/EBP site oligonucleotide (dsDNA)
DNA 1: CTAGGGCTTGCGCAATCTATATTCG
DNA 2: CGAATATAGATTGCGCAAGCCCTA
B1: the binding result is listed as “binds”.

The values above are taken from publication PMC4814574.
